B1: VHH1 (VHH)
VHH: QVQLQDSGGGLVQAGDRLSLSCAASGRTFSSYDMAWFRQAPGKEREFVAAITTSEGTWYGDAGKGRFTIARVNAKNTVYLHMNRLKPEDTAVYYCAASNQGGSLQISTNYNYWGQGTQVTVSS
B2: VHH2 (VHH)
VHH: QVQLQESGGGLVQAGDSLRLSCAASGRTFSSYAMGWFRQAPGKEREFVAAVSSSNSPWYGDSIKGRSTIHRDNAKNTVYLYMNNLKPEDTAVYYCAADLEGERLGESSEYDYWGQGTQVTVSS
B3: VHH3 (VHH)
VHH: QVQLQESGGGLVQPGGSLRLSCAASGFTFKYYAMSWVRQAPGKGLEWVSYINDNGGYTDYSDSVKGRFTISRDNAKNTLYLHMNRLKPEDTAVYFCAKWDTDAVSSSRYKTHNGDIRGPGTQVTVSS
B4: VHH15 (VHH)
VHH: QVQGAGLWGGLVQLGGSLRLSCAASGFTFGYYAMSWVRQAPGKGLEWVSYINDNGGYTAYTDPVKGRFTISRDNAKNILYLHMNNLKPEDTAVYFCAKWGTDAVSSSRYKSHDYDSRGPGTQVTVSS

target: rhesus rotavirus strain RRV; assay: cell-based or functional assay

Binder | % infection of MA104 cells relative to irrelevant VHH (NSP4 Western blot densitometry)
B1 | 40%
B2 | 40%
B3 | 40%
B4 | 40%

— patent US20110123546A1 (published 2011)
